Assay results as given in the Human Domainome abundance scans (Beltran et al. 2025).
± gives the uncertainty stated by the source.

B1: GA-binding protein alpha chain, residues 172 to 250; numbered along this chain, Q06546 (parent)
chain: GYRKEQERLGIPYDPIQWSTDQVLHWVVWVMKEFSMTDIDLTTLNISGRELCSLNQEDFFQRVPRGEILWSHLELLRKY

Variants of: B1
Experiment: abundance fitness (aPCA) (normalised: wild type 0, dead -1); higher = more abundant; growth selection in yeast, the domain comes from the species named
Conditions: Homo sapiens
With GYRKEQERLGIPYDPIQWSTRQVLHWVVWVMKEFSMTDIDLTTLNISGRELCSLNQEDFFQRVPRGEILWSHLELLRKY [D21R] the abundance fitness was -0.096 ± 0.032.
Variant GYRKEQERLGIPYDPIQWSTYQVLHWVVWVMKEFSMTDIDLTTLNISGRELCSLNQEDFFQRVPRGEILWSHLELLRKY [D21Y] has an abundance fitness of -0.27 ± 0.084.
Work on GYRKEQERLGIPYDPIQWSTTQVLHWVVWVMKEFSMTDIDLTTLNISGRELCSLNQEDFFQRVPRGEILWSHLELLRKY [D21T] yielded an abundance fitness of -0.114 ± 0.055.
GYRKEQERLGIPYDPIQWSTSQVLHWVVWVMKEFSMTDIDLTTLNISGRELCSLNQEDFFQRVPRGEILWSHLELLRKY [D21S] showed an abundance fitness of -0.029 ± 0.036.
For GYRKEQERLGIPYDPIQWSTKQVLHWVVWVMKEFSMTDIDLTTLNISGRELCSLNQEDFFQRVPRGEILWSHLELLRKY [D21K], the abundance fitness was -0.029 ± 0.084.
For GYRKEQERLGIPYDPIQWSTPQVLHWVVWVMKEFSMTDIDLTTLNISGRELCSLNQEDFFQRVPRGEILWSHLELLRKY [D21P], the abundance fitness was -0.089 ± 0.03.
GYRKEQERLGIPYDPIQWSTLQVLHWVVWVMKEFSMTDIDLTTLNISGRELCSLNQEDFFQRVPRGEILWSHLELLRKY [D21L] gave an abundance fitness of -0.414 ± 0.042.
For GYRKEQERLGIPYDPIQWSTMQVLHWVVWVMKEFSMTDIDLTTLNISGRELCSLNQEDFFQRVPRGEILWSHLELLRKY [D21M], the abundance fitness was -0.134 ± 0.09.
In the case of GYRKEQERLGIPYDPIQMSTDQVLHWVVWVMKEFSMTDIDLTTLNISGRELCSLNQEDFFQRVPRGEILWSHLELLRKY [W18M], the abundance fitness is reported as -0.957 ± 0.18.
Variant GYRKEQERLGIPYDPIQVSTDQVLHWVVWVMKEFSMTDIDLTTLNISGRELCSLNQEDFFQRVPRGEILWSHLELLRKY [W18V] has an abundance fitness of -0.927 ± 0.081.
Work on GYRKEQERLGIPYDPIQRSTDQVLHWVVWVMKEFSMTDIDLTTLNISGRELCSLNQEDFFQRVPRGEILWSHLELLRKY [W18R] yielded an abundance fitness of -0.905 ± 0.07.
Work on GYRKEQERLGIPYDPIQQSTDQVLHWVVWVMKEFSMTDIDLTTLNISGRELCSLNQEDFFQRVPRGEILWSHLELLRKY [W18Q] yielded an abundance fitness of -0.944 ± 0.13.
GYRKEQERLGIPYDPIQNSTDQVLHWVVWVMKEFSMTDIDLTTLNISGRELCSLNQEDFFQRVPRGEILWSHLELLRKY [W18N] showed an abundance fitness of -0.134 ± 0.18.
GYRKEQERLGIPYDPIQSSTDQVLHWVVWVMKEFSMTDIDLTTLNISGRELCSLNQEDFFQRVPRGEILWSHLELLRKY [W18S] gave an abundance fitness of -0.835 ± 0.072.
GYRKEQERLGIPYDPIQYSTDQVLHWVVWVMKEFSMTDIDLTTLNISGRELCSLNQEDFFQRVPRGEILWSHLELLRKY [W18Y] gave an abundance fitness of -0.669 ± 0.14.
GYRKEQERLGIPYDPIQTSTDQVLHWVVWVMKEFSMTDIDLTTLNISGRELCSLNQEDFFQRVPRGEILWSHLELLRKY [W18T] gave an abundance fitness of -0.98 ± 0.16.
Work on GYRKEQERLGIPYDPIQWSLDQVLHWVVWVMKEFSMTDIDLTTLNISGRELCSLNQEDFFQRVPRGEILWSHLELLRKY [T20L] yielded an abundance fitness of -0.318 ± 0.043.
GYRKEQERLGIPYDPIQWSQDQVLHWVVWVMKEFSMTDIDLTTLNISGRELCSLNQEDFFQRVPRGEILWSHLELLRKY [T20Q] showed an abundance fitness of -0.043 ± 0.063.
For GYRKEQERLGIPYDPIQWSGDQVLHWVVWVMKEFSMTDIDLTTLNISGRELCSLNQEDFFQRVPRGEILWSHLELLRKY [T20G], the abundance fitness was -0.069 ± 0.032.
For GYRKEQERLGIPYDPIQWSCDQVLHWVVWVMKEFSMTDIDLTTLNISGRELCSLNQEDFFQRVPRGEILWSHLELLRKY [T20C], the abundance fitness was -0.118 ± 0.069.
Variant GYRKEQERLGIPYDPIQWSSDQVLHWVVWVMKEFSMTDIDLTTLNISGRELCSLNQEDFFQRVPRGEILWSHLELLRKY [T20S] has an abundance fitness of 0.041 ± 0.036.
With GYRKEQERLGIPYDPIQWSKDQVLHWVVWVMKEFSMTDIDLTTLNISGRELCSLNQEDFFQRVPRGEILWSHLELLRKY [T20K] the abundance fitness was 0.043 ± 0.069.
GYRKEQERLGIPYDPIQWSYDQVLHWVVWVMKEFSMTDIDLTTLNISGRELCSLNQEDFFQRVPRGEILWSHLELLRKY [T20Y] showed an abundance fitness of -0.529 ± 0.11.
Work on GYRKEQERLGIPYDPIQWSIDQVLHWVVWVMKEFSMTDIDLTTLNISGRELCSLNQEDFFQRVPRGEILWSHLELLRKY [T20I] yielded an abundance fitness of -0.101 ± 0.12.
Work on GYRKEQERLGIPYDPIQWSDDQVLHWVVWVMKEFSMTDIDLTTLNISGRELCSLNQEDFFQRVPRGEILWSHLELLRKY [T20D] yielded an abundance fitness of -0.101 ± 0.086.
Variant GYRKEQERLGIPYDPIQWSNDQVLHWVVWVMKEFSMTDIDLTTLNISGRELCSLNQEDFFQRVPRGEILWSHLELLRKY [T20N] has an abundance fitness of 0.103 ± 0.099.
Work on GYRKEQERLGIPYDPIQWSPDQVLHWVVWVMKEFSMTDIDLTTLNISGRELCSLNQEDFFQRVPRGEILWSHLELLRKY [T20P] yielded an abundance fitness of -0.013 ± 0.053.
In the case of GYRKEQERLGIPYDPIQWSHDQVLHWVVWVMKEFSMTDIDLTTLNISGRELCSLNQEDFFQRVPRGEILWSHLELLRKY [T20H], the abundance fitness is reported as -0.047 ± 0.11.
In the case of GYRKEQERLGIPYDPIQWSADQVLHWVVWVMKEFSMTDIDLTTLNISGRELCSLNQEDFFQRVPRGEILWSHLELLRKY [T20A], the abundance fitness is reported as 0.024 ± 0.043.
Work on GYRKEQERLGIPYDPIQWSMDQVLHWVVWVMKEFSMTDIDLTTLNISGRELCSLNQEDFFQRVPRGEILWSHLELLRKY [T20M] yielded an abundance fitness of -0.15 ± 0.057.
GYRKEQERLGIPYDPIQWSEDQVLHWVVWVMKEFSMTDIDLTTLNISGRELCSLNQEDFFQRVPRGEILWSHLELLRKY [T20E] gave an abundance fitness of 0.039 ± 0.053.
Variant GYRKEQERLGIPYDPIQWSFDQVLHWVVWVMKEFSMTDIDLTTLNISGRELCSLNQEDFFQRVPRGEILWSHLELLRKY [T20F] has an abundance fitness of -0.716 ± 0.19.
GYRKEQERLGIPYDPIQWSWDQVLHWVVWVMKEFSMTDIDLTTLNISGRELCSLNQEDFFQRVPRGEILWSHLELLRKY [T20W] gave an abundance fitness of -0.516 ± 0.061.
Variant GYRKEQERLGIPYDPIQWSRDQVLHWVVWVMKEFSMTDIDLTTLNISGRELCSLNQEDFFQRVPRGEILWSHLELLRKY [T20R] has an abundance fitness of -0.022 ± 0.032.
GYRKEQERLGIPYDPIQWSVDQVLHWVVWVMKEFSMTDIDLTTLNISGRELCSLNQEDFFQRVPRGEILWSHLELLRKY [T20V] gave an abundance fitness of -0.03 ± 0.039.
